The results in this text go back to patent US20260034194A1, “PHARMACEUTICAL COMPOSITIONS AND METHODS OF TREATING PSP” (priority 2022, published 2026).

The format of this assay is binding. To be noted: for Kd: FP, 1 nM F-STX, 25° C., errors S.D.; for ΔΔG: ΔΔG = RT ln(Kd mutant or XSxph/Kd RcSxph), T = 298K, FP with F-STX.

B1: E540Q: RcSxph STX binding pocket mutant E540Q (protein)
chain: MAPTFQTALFFTIISLSFAAPNAKQVRWCAISDLEQKKCNDLVGSCNVPDITLVCVLRSSTEDCMTAIKDGQADAMFLDSGEVYEASKDPYNLKPIIAEPYSSNRDLQKCLKERQQALAKKMIGHYIPQCDEKGNYQPQQCHGSTGHCWCVNAMGEKISGTNTPPGQTRATCERHELPKCLKERQVALGGDEKVLGRFVPQCDEKGNYEPQQFHGSTGYSWCVNAIGEEIAGTKTPPGKIPATCQKHDLVTTCHYAVAMVKKSSAFQFNQLKGKRSCHSGVSKTDGWKALVTVLVEKKLLSWDGPAKESIQRAMSKFFSVSCIPGATQTNLCKQCKGEEGKNCKNSHDEPYYGNYGAFRCLKEDMGDVAFLRSTALSDEHSEVYELLCPDNTRKPLNKYKECNLGTVPAGTVVTRKISDKTEDINNFLMEAQKRQCKLFSSAHGKDLMFDDSTLQLALLSSEVDAFLYLGVKLFHAMKALTGDAHLPSKNKVRWCTINKLEKMKCDDWSAVSGGAIACTEASCPKGCVKQILKGEADAVKLEVQYMYEALMCGLLPAVQEYHNKDDFGPCKTPGSPYTDFGTLRAVALVKKSNKDINWNNIKGKKSCHTGVGDIAGWVIPVSLIRRQNDNSDIDSFFGESCAPGSDTKSNLCKLCIGDPKNSAANTKCSLSDKEAYYGNQGAFRCLVEKGDVAFVPHTVVFENTDGKNPAVWAKNLKSEDFELLCLDGSRAPVSNYKSCKLSGIPPPAIVTREESISDVVRIVANQQSLYGRKGFEKDMFQLFSSNKGNNLLFNDNTQCLITFDRQPKDIMEDYFGKPYYTTVYGASRSAMSSELISACTIKHC
In general, Kd refers to the equilibrium constant for the complex coming apart. High values mean lower affinity, low ones higher affinity. Regarding B1, the affinity, expressed as Kd, was 10.6 ± 1.32 µM and the “ΔΔG” value was 4.30 kcal/mol.

B2: D794N: RcSxph STX binding pocket mutant D794N (protein)
chain: MAPTFQTALFFTIISLSFAAPNAKQVRWCAISDLEQKKCNDLVGSCNVPDITLVCVLRSSTEDCMTAIKDGQADAMFLDSGEVYEASKDPYNLKPIIAEPYSSNRDLQKCLKERQQALAKKMIGHYIPQCDEKGNYQPQQCHGSTGHCWCVNAMGEKISGTNTPPGQTRATCERHELPKCLKERQVALGGDEKVLGRFVPQCDEKGNYEPQQFHGSTGYSWCVNAIGEEIAGTKTPPGKIPATCQKHDLVTTCHYAVAMVKKSSAFQFNQLKGKRSCHSGVSKTDGWKALVTVLVEKKLLSWDGPAKESIQRAMSKFFSVSCIPGATQTNLCKQCKGEEGKNCKNSHDEPYYGNYGAFRCLKEDMGDVAFLRSTALSDEHSEVYELLCPDNTRKPLNKYKECNLGTVPAGTVVTRKISDKTEDINNFLMEAQKRQCKLFSSAHGKDLMFDDSTLQLALLSSEVDAFLYLGVKLFHAMKALTGDAHLPSKNKVRWCTINKLEKMKCDDWSAVSGGAIACTEASCPKGCVKQILKGEADAVKLEVQYMYEALMCGLLPAVEEYHNKDDFGPCKTPGSPYTDFGTLRAVALVKKSNKDINWNNIKGKKSCHTGVGDIAGWVIPVSLIRRQNDNSDIDSFFGESCAPGSDTKSNLCKLCIGDPKNSAANTKCSLSDKEAYYGNQGAFRCLVEKGDVAFVPHTVVFENTDGKNPAVWAKNLKSEDFELLCLDGSRAPVSNYKSCKLSGIPPPAIVTREESISDVVRIVANQQSLYGRKGFEKDMFQLFSSNKGNNLLFNDNTQCLITFDRQPKDIMENYFGKPYYTTVYGASRSAMSSELISACTIKHC
Regarding B2, the Kd worked out at 3.23 ± 0.397 µM and the “ΔΔG” value came to 3.60 kcal/mol.
